Source: patent publication US20240336663

Tests used:
[1] = tested on: ZFR11 (Zinc Finger 11-HP1a-KRAB) (synthetic); assay: cell_activity; settings: N2A cells, transfection, qPCR; indirect (repression); text labels ZFR11 as SEQ 10 but the listing gives Zinc Finger 11-HP1a-KRAB as SEQ 11
[2] = tested on: ZFR3 (Zinc Finger 3-HP1a-KRAB) (synthetic); assay: cell_activity; settings: N2A cells, transfection, qPCR; indirect (repression); text labels ZFR3 as SEQ 11 but the listing gives Zinc Finger 3-HP1a-KRAB as SEQ 10
Chain of ZFR3 (Zinc Finger 3-HP1a-KRAB) (synthetic) (chain, as listed by the source): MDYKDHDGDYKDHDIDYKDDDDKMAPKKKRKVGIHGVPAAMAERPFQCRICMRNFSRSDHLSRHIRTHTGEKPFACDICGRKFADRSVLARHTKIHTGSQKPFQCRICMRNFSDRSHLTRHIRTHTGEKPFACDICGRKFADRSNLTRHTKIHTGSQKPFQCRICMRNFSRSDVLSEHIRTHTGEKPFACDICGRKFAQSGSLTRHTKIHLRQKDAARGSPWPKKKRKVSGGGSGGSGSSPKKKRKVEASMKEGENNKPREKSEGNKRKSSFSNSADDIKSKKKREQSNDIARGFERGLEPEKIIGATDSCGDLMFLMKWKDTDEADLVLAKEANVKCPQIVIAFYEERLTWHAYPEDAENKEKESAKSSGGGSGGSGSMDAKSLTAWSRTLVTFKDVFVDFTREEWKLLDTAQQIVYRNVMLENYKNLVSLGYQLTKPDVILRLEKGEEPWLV

Chain of ZFR11 (Zinc Finger 11-HP1a-KRAB) (synthetic) (chain, as listed by the source): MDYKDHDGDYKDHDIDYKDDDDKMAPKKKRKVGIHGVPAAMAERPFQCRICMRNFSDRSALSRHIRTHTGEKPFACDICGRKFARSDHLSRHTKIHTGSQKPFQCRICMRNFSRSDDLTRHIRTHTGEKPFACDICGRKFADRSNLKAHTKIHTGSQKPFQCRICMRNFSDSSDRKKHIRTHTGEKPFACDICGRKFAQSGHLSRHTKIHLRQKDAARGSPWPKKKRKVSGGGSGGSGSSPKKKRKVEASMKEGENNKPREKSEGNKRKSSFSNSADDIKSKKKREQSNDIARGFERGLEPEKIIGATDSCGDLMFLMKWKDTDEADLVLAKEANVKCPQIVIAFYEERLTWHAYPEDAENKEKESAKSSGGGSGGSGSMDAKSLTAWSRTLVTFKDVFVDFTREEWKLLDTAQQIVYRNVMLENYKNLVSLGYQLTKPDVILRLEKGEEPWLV

mouse Myd88 promoter target region (20 nt target of each ZF not individually printed)
relative Myd88 expression (fold Myd88 expression) [1]: 0.21 | relative Myd88 expression (fold Myd88 expression) [2]: 0.22
